We go through 31 molecules from patent US20250368744A1 (CONCEPT TO MEDICINE BIOTECH, published 2025).

The chains are these.
B1: Hu195H8D10-7 (antibody, V domains shown)
VH: EVQLVESGGGLVQPGGSLRLSCAASGFNFNTYVMNWVRQAPGKGLEWVARIRTKSNNYATYYADSVKDRFTISRDDSKNSLYLQMNSLKTEDTAVYYCVSGTITRLGGGLDYWGQGTLVTVSS
VL: DIVMTQSPLSLPVTPGEPASISCRSSKRLLHSNGNTYLYWYLQKPGQSPQLLIYRMSNLASGVPDRFSGSGSGTAFTLKISRVEAEDVGVYYCMQHLEYPFTFGGGTKLEIK
notes: humanized
B2: Hu195H8D10-5 (antibody, V domains shown)
VH: B1 VH
VL: B1 VL with A75D
notes: humanized
B3: Hu200C9B9-14 (antibody, V domains shown)
VH: B1 VH with N28S, E46N, Y61F, A63V, K78E, G108A
VL: B1 VL with R28S, Y41F, A75D
notes: humanized
B4: Hu195H8D10-9 (antibody, V domains shown)
VH: B1 VH with N79S
VL: B1 VL with A75D
notes: humanized
B5: Hu195H8D10-10 (antibody, V domains shown)
VH: B1 VH with N79S
VL: B1 VL with Y41F, A75D
notes: humanized
B6: Hu200C9B9-16 (antibody, V domains shown)
VH: B1 VH with N28S, E46N, Y61F, A63V, K78E, G108A
VL: B1 VL with R28S, Y41F
notes: humanized
B7: Hu200C9B9-2 (antibody, V domains shown)
VH: B1 VH with N28S, A49G, Y61F, A63V, V99A, S100R, G108A
VL: B1 VL with R28S, Y41F, A75D
notes: humanized
B8: Hu195H8D10-1 (antibody, V domains shown)
VH: B1 VH with A49G, V99A, S100R
VL: B1 VL with A75D
notes: humanized
B9: Hu195H8D10-8 (antibody, V domains shown)
VH: B1 VH
VL: B1 VL with Y41F
notes: humanized
B10: Hu200C9B9-7 (antibody, V domains shown)
VH: B1 VH with N28S, Y61F, A63V, G108A
VL: B1 VL with R28S
notes: humanized
B11: Hu200C9B9-11 (antibody, V domains shown)
VH: B1 VH with N28S, E46N, Y61F, A63V, G108A
VL: B1 VL with R28S
notes: humanized
B12: Hu195H8D10-3 (antibody, V domains shown)
VH: B1 VH with A49G, V99A, S100R
VL: B1 VL
notes: humanized
B13: Hu200C9B9-10 (antibody, V domains shown)
VH: B1 VH with N28S, E46N, Y61F, A63V, G108A
VL: B1 VL with R28S, Y41F, A75D
notes: humanized
B14: Hu200C9B9-5 (antibody, V domains shown)
VH: B1 VH with N28S, Y61F, A63V, G108A
VL: B1 VL with R28S, A75D
notes: humanized
B15: Hu195H8D10-13 (antibody, V domains shown)
VH: B1 VH with K78E, N79S, V95M
VL: B1 VL with A75D
notes: humanized
B16: Hu200C9B9-1 (antibody, V domains shown)
VH: B1 VH with N28S, A49G, Y61F, A63V, V99A, S100R, G108A
VL: B1 VL with R28S, A75D
notes: humanized
B17: Hu195H8D10-4 (antibody, V domains shown)
VH: B1 VH with A49G, V99A, S100R
VL: B1 VL with Y41F
notes: humanized
B18: Hu200C9B9-4 (antibody, V domains shown)
VH: B1 VH with N28S, A49G, Y61F, A63V, V99A, S100R, G108A
VL: B1 VL with R28S, Y41F
notes: humanized
B19: Hu200C9B9-13 (antibody, V domains shown)
VH: B1 VH with N28S, E46N, Y61F, A63V, K78E, G108A
VL: B1 VL with R28S, A75D
notes: humanized
B20: Hu200C9B9-6 (antibody, V domains shown)
VH: B1 VH with N28S, Y61F, A63V, G108A
VL: B1 VL with R28S, Y41F, A75D
notes: humanized
B21: Hu200C9B9-8 (antibody, V domains shown)
VH: B1 VH with N28S, Y61F, A63V, G108A
VL: B1 VL with R28S, Y41F
notes: humanized
B22: Hu195H8D10-6 (antibody, V domains shown)
VH: B1 VH
VL: B1 VL with Y41F, A75D
notes: humanized
B23: Hu200C9B9-3 (antibody, V domains shown)
VH: B1 VH with N28S, A49G, Y61F, A63V, V99A, S100R, G108A
VL: B1 VL with R28S
notes: humanized
B24: Hu195H8D10-15 (antibody, V domains shown)
VH: B1 VH with K78E, N79S, V95M
VL: B1 VL
notes: humanized
B25: Hu195H8D10-12 (antibody, V domains shown)
VH: B1 VH with N79S
VL: B1 VL with Y41F
notes: humanized
B26: Hu195H8D10-16 (antibody, V domains shown)
VH: B1 VH with K78E, N79S, V95M
VL: B1 VL with Y41F
notes: humanized
B27: Hu195H8D10-11 (antibody, V domains shown)
VH: B1 VH with N79S
VL: B1 VL
notes: humanized
B28: Hu200C9B9-12 (antibody, V domains shown)
VH: B1 VH with N28S, E46N, Y61F, A63V, G108A
VL: B1 VL with R28S, Y41F
notes: humanized
B29: Hu195H8D10-2 (antibody, V domains shown)
VH: B1 VH with A49G, V99A, S100R
VL: B1 VL with Y41F, A75D
notes: humanized
B30: Hu195H8D10-14 (antibody, V domains shown)
VH: B1 VH with K78E, N79S, V95M
VL: B1 VL with Y41F, A75D
notes: humanized
B31: Hu200C9B9-9 (antibody, V domains shown)
VH: B1 VH with N28S, E46N, Y61F, A63V, G108A
VL: B1 VL with R28S, A75D
notes: humanized

Numbering of substitutions follows the chain as printed.

The target of this assay is T1, human C-C motif chemokine receptor 8 (CCR8) (human, UniProt P51685 1-355).
T1 construct: whole, on cells; also called human CCR8; hCCR8
T1 sequence (P51685 whole entry): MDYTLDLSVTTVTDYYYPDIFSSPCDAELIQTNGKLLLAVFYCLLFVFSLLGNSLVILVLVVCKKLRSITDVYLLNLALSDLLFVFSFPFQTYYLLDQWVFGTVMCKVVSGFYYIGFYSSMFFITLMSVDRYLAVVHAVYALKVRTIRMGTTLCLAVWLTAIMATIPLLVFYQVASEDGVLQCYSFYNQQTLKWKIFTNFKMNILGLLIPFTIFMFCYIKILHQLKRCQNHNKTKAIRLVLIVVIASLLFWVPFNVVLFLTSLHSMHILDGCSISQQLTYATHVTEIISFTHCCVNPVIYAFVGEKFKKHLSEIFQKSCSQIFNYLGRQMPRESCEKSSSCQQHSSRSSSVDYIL
The assay can be described thus: FACS (MFI-PE) on CHO-K1 hCCR8 cells, bars at five doses. The protocol:
PE Goat anti-Human IgG Fc Secondary Antibody (eBioscience™, Invitrogen) was added to each well and incubated at 4° C. for 30 mins. Samples were washed twice with FACS buffer. The mean florescence intensity (MFI) of PE was evaluated by MACSQuant Analyzer 16.
On to B1, for which the binding result is “binds”.
For the molecule B2, the binding result was “binds”.
Next, B3: “binds”; B4: “binds”; B5: “binds”.
B6: the binding result is on record as “binds”.
Regarding B7, the binding result is “binds”.
For the molecule B8, the binding result is given as “binds”.
For the molecule B9, the binding result is given as “binds”.
Then B10, with “binds”; and B11, with “binds”; and B12, with “binds”.
Turning to B13, the binding result is given as “binds”.
Turning to B14, the binding result is given as “binds”.
For the molecule B15, the binding result is given as “binds”.
Consider B16, for which the binding result is “binds”.
For the molecule B17, the binding result is “binds”.
With B18, the binding result is recorded as “binds”.
In the case of B19, the binding result was “binds”.
Next, B20: “binds”; B21: “binds”.
Consider B22, for which the binding result is on record as “binds”.
Next, B23: “binds”; B24: “binds”.
Consider B25, for which the binding result is on record as “binds”.
Then B26, with “binds”; and B27, with “binds”.
Next, B28: “binds”.
In the case of B29, the binding result is on record as “binds”.
Then B30, with “binds”; and B31, with “binds”.
